# Experimental data taken from the DeepSol protein solubility set.
# Test: soluble on expression in E. coli; label from the status in PepcDB or PDB records
row,Sequence,soluble on expression in E. coli
1,SFTSQQWKHLSNDFLKTQQEKRHSWFKASGTIKKFRAGLSIFSPIPKSPSFPIIQDSMLKGKLGVPELRVGRLMNRSISCTMKNPKVEVFGYPPSPQVSGHCKNIPTLEYGFLVQIMKYAEQRIPTLNEYCVVCDEQHVFQNGSMLKPAVCTRELCVFSFYTLGVMSGAAEEVATGAEVVDLLVAMCRAALESPRKSIIFEPYPSVVDPTDPKTLAFNPKKKNYERLQKALDSVMSIREMTQGSYLEIKKQMDKLDPLAHPLLQWIISSNRSHIVKLPLSRLKFMHTSHQFLLLSSPPAKEARFRTAKKLYGSTFAFHGSHIENWHSILRNGLVNASYTKLQEWEKDSTGCPPRMSWSRDTTG,soluble
2,MSLQQGDRVPAGLTLTNQAGESFRIGDYRGQTLVLTFIYTRCPLPTYCPLMSKQFAALQPQLRERYGEEAQLLSISFDPAYDTPQVLREYASKYTDRLDTWTFATGDSSQVERATGLFGVHAQKTGSEEITHNLTTALIGSEGHVRRLWRGNDWTPEDVRQAVAQVAEASEGHHHHHH,soluble
3,SNANRDSLFNDPNAPVLGNPEGDVTVVEFFDYNCPYCRRAMAEVQGLVDADPNVRLVYREWPILGEGSDFAARAALAARQQGKYEAFHWALMGMSGKANETGVLRIAREVGLDTEQLQRDMEAPEVTAHIAQSMALAQKLGFNGTPSFVVEDALVPGFVEQSQLQDAVDRARKAA,soluble
4,MGRAELLEGKMSTQDPSDLWSRSDGEAELLQDLGWYHGNLTRHAAEALLLSNGCDGSYLLRDSNETTGLYSLSVRAKDSVKHFHVEYTGYSFKFGFNEFSSLKDFVKHFANQPLIGSETGTLMVLKHPYPRKVEEPSIYESVRVHTAMQTGRTEDDLVPTAPSLGTKEGYLTKQGGLVKTWKTRWFTLHRNELKYFKDQMSPEPIRILDLTECSAVQFDYSQERVNCFCLVFPFRTFYLCAKTGVEADEWIKILRWKLSQIRKQLNQGEGTIRSRSFIFK,soluble
5,SFNTYQHLLPETVRHLPDVKKQLAMVRPGLSMLSIFICLKGTKEDLKLQSTNYYVYFDTDMDKAMERYVSMPKEKAPEHIPLLFIAFPSSKDPTWEERFPDRSTMTALVPMAFEWFEEWQEEPKGKRGVDYETLKNAFVEASMSVIMKLFPQLEGKVESVTGGSPLTNQYYLAAPRGATYGADHDLARLHPHAMASIRAQTPIPNLYLTGQDIFTCGLMGALQGALLCSSAILKRNLYSDLQALGSKVKAQKKKM,soluble
6,RSDTTIVATVNPRDKQTTLVSLARDTYVDIPGQGKQDKLNHAYAFGGASLAMDTVENYLNIPINHYVSINMAGLKELVNAVGGIEVNNNLTFSQDGYDFTIGKISLDGEQALSYSRMRYEDPNGDYGRQERQRKVIEGIVQKVLS,not soluble
7,MTNQQDYTQDNDKLYRYLFQHRAVRGEWVRLNKTFTDTLNTHQYPKAVQDLLGEMMVATNLLTATLKFAGNITVQIQGDGPLRLALVNGNDQQQIRALARVDGNITENMSLHNMIGKGVLVITIAPKEGERYQGVISLDKPTITECLEDYFVRSEQLQTQLIIRTGEYEGKPVAAGMLLQIMPDGSGTPEDFEHLTTLAATVKDEELFGLPAEELLYRLYHEETVNLYPAQDVQFFCGCSAERSSSALLLISDEEIDEILAEHKGRIDMQCECCGTHYFFNKEAIEKLKSTRV,not soluble
8,MNSAHRSSLKKRPGPQDDRRVSFASPVSSSQKTAAVTVAAQTKQPAKAKNLRTMHSTPKKSKPAHDVADIISLVSKQSDILDDVSEIEHKMIKQAKMTQDLTMELANSIERIANMALAESKLSDQMEKQSKKLISLEGKTKELVEKANNWSKTLENRVDARSHHSTCLNDVQAAIKIINNAKINNDGFSEDFSAHYDKLLDLVETLEPWADKL,soluble
9,MTTNLTNSNCVEEYKENGKTKIRIKPFNALIELYHHQTPTGSIKENLDKLENYVKDVVKAKGLAIPTSGAFSNTRGTWFEVMIAIQSWNYRVKRELNDYLIIKMPNVKTFDFRKIFDNETREKLHQLEKSLLTHKQQVRLITSNPDLLIIRQKDLIKSEYNLPINKLTHENIDVALTLFKDIEGKCKWDSLVAGVGLKTSLRPDRRLQLVHEGNILKSLFAHLKMRYWNPKAEFKYYGASSEPVSKADDDALQTAATHTIVNVNSTPERAVDDIFSLTSFEDIDKMLDQIIKK,soluble
10,MSILHMPLKIKDITIKNRIMMSPMCMYSASTDGMPNDWHIVHYATRAIGGVGLIMQEATAVESRGRITDHDLGIWNDEQVKELKKIVDICKANGAVMGIQLAHAGRKCNISYEDVVGPSPIKAGDRYKLPRELSVEEIKSIVKAFGEAAKRANLAGYDVVEIHAAHGYLIHEFLSPLSNKRKDEYGNSIENRARFLIEVIDEVRKNWPENKPIFVRVSADDYMEGGINIDMMVEYINMIKDKVDLIDVSSGGLLNVDINLYPGYQVKYAETIKKRCNIKTSAVGLITTQELAEEILSNERADLVALGRELLRNPYWVLHTYTSKEDWPKQYERAFKKHHHHHH,soluble
11,MKVLIGGYTKKTSKGIYELPFIGEDNEAHLEKAENIISVGGPTYFQKDGDLVFTINNAGDEGGISAFKLSDHGSNEIDRHLTPGASPAYIGINKEKKLLYTANYHTAVLSVFQYSNSGKLALVAQTTHKAESLGPRPEQVDGPHPHFFDETPAGNLVSCDLGNDTVDFYRLENNELKHLAQYKNEAGFGDRHIVFSKDGNYFYVVGELSSQINVVKFNENTWEFEDIATYKTIPEDFTEHNGAAALYITNDGKYIYNSNRGHNSITVFKVNDDHTLSLIQRISTFGDFPRDFNWDETQKYVVAANQNTDNATLYLRNGGNGTLTPIQTEIPVPEGTRVLFTKLEHHHHHH,not soluble
12,MNVTSKPGELVPESDVAAIMRGTHGDPFRVLGMHGGGGAPLSVRVFAPQAAEVAVLGQGGEVLAPLERIGAEGFFAGTVPGEEKFPYRLRFVSGPHEWEADDPYRFPEVLG,not soluble
13,MGSDKIHHHHHHMRKDEYRATLLEPNVWHIADYRGDSMYLVVGEEKALLVDTGMGEGDLKGFVRSITEKPVEVVLTHAHWDHIMQANQFEKVYLNHRDFQIIELFKINVNYENFLNVKEGDRFDLGGRTLEVIEVPGHTPGSIVLLDRENRLLFSGDSVGAGHTWMHLPGCLPLREYLKSLKKLKETDSFEKIYHGHLTGTQLKPFGPDYLDDLIKAVEGVIDGSLRGEP,not soluble
14,DLDLEMLAPYIPMDDDFQLR,soluble
15,MEEWVREQYGMRVERLERSGRHAAFWHRQERFLLVPADGQSEAEMEERQQMSRYLRAKGVDGVGELVKTTSGTYIASYNGQPLALVRAPLPASRFRSLGRELAVMHECGRTCPWPIVACRRIGQWRELWAKRIDQMEAFWSSKLASGPSSLFDRLFIESFPYYLGLAENAVQYVADTEIDEEPGRIDYAAFCHERLPEAKWVGGGEAKLPTDWVYDHCARDLAEWVRHLYEKSGLGCQRAVRQFFQEYEHAAPLSPFAWRLVYARLLFPLSYFECVEAYYIAVDESERTRREGELRRLLDRSHEYERFLASFAKIAGISNRIRLPAVEWLPPA,not soluble
16,MRAADAPDAPLPEDRRNAPVWFAHDLEAPRCTALFPRLADRRPALVVVGGFLGSGKTTFLNNCIEYHRARERFVAVIQNEVGATGVDARLMGDGAEVLALDEGCVCCSLAGSLAGGIRAITADFTPEVILLETTGLANPLNLLAELDTLRDMVRLDAVVTVVDAANIVPTLRDSDIARDQIRGADIIVCNKCDTVDETGRAALRATLTGLNGRAALHETSFGRIHPSLFMALEGERPPRGLMPAPHGTHATHADEGFAAVRLFFSGTIDEAALAPLLQQCPGAPFRIKGIVRVTDDEAPRLVQCVGARCEVERLDGGFEGTPFLVFIGRNPDETALLEHWAALGATAEPPAPQAEADTQPAQATKSASGGQSSDATRGCHDHHLEHHHHHH,not soluble
17,IPNDILIVNPEAQGLVDGHKVIVKITKYPEGRMSAEGEVISILGHKNDPGMDILSIIYKYGIPQAFPEEVLQQAQNIPDEIDAGEIKNRRDLRDEPLVTIDGADAKDLDDAVHVSRLPNGNFKLGVHIADVSYYVKEKSPIDLEAAERGTSVYLVDRVIPMIPHRLSNGICSLNPQVDRLTLSCEMEITRDGQVVNHEIFQSVIRTNERMTYHDVNKILVEKEEELRNRYELLVPMFEDMEELAAILRKKRFGRGAIDFDFKEAKVLVDEEGKPSDVVIRERGVAEKLIEEFMLAANETVAEHFHWLKLPFMYRIHEDPDSEKLGRFLEFITNFGYVVRGTANTVHPRALQKLLEEVRGEPEEQVISTVMLRSMQQAK,not soluble
18,MLRIAVDCMGGDYAPLEIVRGCILAAKELGYKIYLVGDKEQIIPILEKAKEHNNSLLEVVHAPDKVEMHEPPSNVLKKKNSSLYVAGMLVRKGEADGLVSAGNTGAVLAVGKFIVGAEEEVERPSIGVALPNPKGKTVLIDVGANVDCKPKHLVQFAVIGHTYAEEILGIKNPRVGILSIGEEEGKGNELVKETYPLLKATKLNFKGNAEGRDIYAGTFDVIVCDGFVGNVILKASESLGLAVVQMIKEEIKRSILAKLGALLLMPALNRFKKKADFAEYGGIPLLGAKKPVIITHGRANAKAIKNAVRVAGEFLNTDFNKKLVYNLKTLIPEGVKV,soluble
19,MSLATIATLRVLLLAIPDDAAPESDLNLVSWTILNGLRRECERRGIRIVPFVSTGRRIDGAQVRQMALAERADGIVVLNDDQPELIRSLASPDMPVVIVNGEDPAMLVDTVTPENRFGARLGIEHLLALGHRRILHLTWKGRTTIQRRYDGFSDAYLAAQLPVPDNMVVEAEGYEPRHGEAAINALLDRDATVKGATAVFCAADNMALGCLKALADRDIRVPEAISVLGFDDIVPGEFSRPPLSTVSVPTDKLGAAALALIEQRLIANDPQRPAHRLELGCHLVLRGSEGHHHHHH,not soluble
20,GMDDQSGDQMRPELTMPPAEAEALRMAYEEAEVILEYGSGGSTVVAAELPGKHVTSVESDRAWARMMKAWLAANPPAEGTEVNIVWTDIGPTGDWGHPVSDAKWRSYPDYPLAVWRTEGFRHPDVVLVDGRFRVGCALATAFSITRPVTLLFDDYSQRRWQHQVEEFLGAPLMIGRLAAFQVEPQPIPPGSLMQLIRTMTSP,soluble
21,MNVTRKKGPLYLQIKNIIRDRILHGVYAIHTNIPSEPQLEEEFKVSKITVRNAIKELAQEGYLEKKSGKGTKVIRNTSATKLSKGKKFTEVLVEEGYKVQKKLLKAEIVHNEEGTVPFRLFGKESFRIERLYTLNDAPYIHYTHYFSAHMASTDLSDFDLQSLYDLVEDRGIHLENFRDEFAVGLAPSFVAEALGEKEGTALLKRMRYSYDEVGEVIEYSEGYYNTEMQHYVVNYDV,not soluble
22,MASDEGKLFVGGLSFDTNEQSLEQVFSKYGQISEVVVVKDRETQRSRGFGFVTFENIDDAKDAMMAMNGKSVDGRQIRVDQAGKSSDNR,soluble
23,MAHHHHHHMYKYEKLYFFMCWKKCRFNNLTKVFLHSSNDYYNNLNVIKKEKGIFEKLLCIGNYNVDNFCFDKELYEKYRECIKNDYEKIRIKLKERKQNEYNNIHSKNLEHNESNICNNNNNNNINVYESYLYNIIQNNDYKDILISDVIYENGKNILCIGEANLSFSLLLQKNLNLCKVVSTSREDESVLIKKFGKKYFSKNLKLLESSGGIYIPNMNVENLSNQFLKNTFDIIIFNFPFVLPTKECIEKKWNIKLEREEIYSDNLKNETNSNNNSNSNNNNKSNNNNGNNNSSNNVYIKYYKKTEYFLLNKLIYHLFKCASHLLKNEGFLHIRLNDKYLTCSFPKNMSLSFLQKIDFSNSYIIYKSLKYVPSLFDCTFLNYEDKKKEKTKNNVIFTSSGKKIFKSFKMKHTSTLIFQKI,not soluble
